Assay: soluble on expression in E. coli; label from the status in PepcDB or PDB records

Row | Sequence | soluble on expression in E. coli
1 | MKTNKKDEETGGNVYAHLDKTSVLQEARAFNETPINARKCCFILSKLIYIIQQGESIGRTEATEAFFGVTKLWQSKDVSLRRMVYLAVKELAEVSDDVIIVTSSLTKDMTGREDLYRAAAIRALCKITDTGMLQTIERYMKQAIVDRNSAISSSAIVSSIHLMRKSSEVVRRWANEVQEAVSSDNHMVQYHALALLYQIRANDRLAVNKLVQKFSKNALRSPYAVCYLIRIATRCLVDDDQPDSSVFTFIESCLRHKSEMVVYEAARAIVSLPQTTPSEIQPAITALQMCCTSPKAAVRFAAVRTLNKVAMAHPNAVMSCNVDLEKFITDPNRSIATLAITTLLKTGAESSVERLMQQIAGFVNEISDEFKIVVVDAIRSLCSRYPRKHTVMMPFLAKMLRSDGSYDYKKAIVETIIAIIEENPDAKVAGLAHLCEFIEDCEHDNLSTRVLHLLGREAPKTPNPSSYIRFIYNRVILESTKVRAAAVTALAKFGAQCVDLRPSIQVLLKRCLLDSDDEVRDRATFYLKMLTEAAEGLIHNFILDGLQVSPSGLERSILDYLRSGSYSSPFDLRVVPVTQQALSQPEKRVPQLVEEEEKPKAPKVEPYAAQLAAIPQFAALGPVFKSSTRIALTESIAEYTVHMIKHTFANAMVLQFECKNTMNDQLLLDVSVELEDPDGEWETGNTVQIDKLPYGEVHSAFSLLEFPDSGAISGSLGAILKFKVMDVDPTSGEPDSDDTYEQTYVLEEVDVNVSDSVQGVAKSSFGSAWEALGDDATREETFQLSTVENIPDAVKKISEILGLVPCERSDRVPEGKTQHTVFLSGVFRGGYDVLSKATVAVDPNDNSIAMNIIIKSNEPLVADLVISAVV | not soluble
2 | MKTPARRSKRVNQEESETNVTTRVVLRTRKTNCSKTRAARVRPDYPLTRTTSESEMKLMPPEFFQIDALDLAPRLLGKFMRRDNVVLRITEVEAYRPNDSACHGRFGVTPRTAPVFGPGGHAYVYLCYGLHMMLNIVADKEGVGAAVLIRSCSPVSGMETIQERRGLKTDKPVLLNGPGKVGQALGLSTEWSHHPLYSPGGLELLDGGEDVEKVMVGPRVGIDYALPEHVNALWRFAVADTPWISAPKNTLKPL | soluble
3 | MKTQIIGVLGLGIFGQTLATELSSFGQDVIALDNNSTTIDFLADQVTKAAVGDITDIDFLRSAGIDTCDTVIIATGEHLESSALALLHCKKLGITNIIAKATNNNYEEVLYGMGANLVITPERSTAKDLASNILRCNISRIFHLEDDVALIELKIPNEWAGKSLHTLNLRQTYNVNVIGFRNEENGKLNTHFDPMNRLPNEGTILVVSDNRTLEKFDYLGYLKLEHHHHHH | soluble
4 | MKTRLNKTSLNQALLPTSTAGSLPKPLWLAEPETLWSPWKLQGEELITGKHDALRLSLQDQQLAGIDIVSDGEQTRQHFVTTFIEHLNGVDFSKRKIVKIRDRYDASVPTVVGPVSRQKSVFVEDAKFLRKQTTQPIKWALPGPMTMIDTLYDDHYKSREKLAWEFAKILNEEAKELEAAGVDIIQFDEPAFNVFFDEVNDWGIACLERAIEGLKCETAVHICYGYGIKANTDWKKTLGSEWRQYEEVFPKLQKSNIDIISLECHNSHVPMELLELIRGKKVMVGAIDVATDTIETAEEVADTLRKALKFVDADKLYPCTNCGMTPLSHQVTRGKLNALSAGAEIVRKELLALR | soluble
5 | MKTTKFNIENLDLFYGENQALKSINLPIPTRQVTALIGPSGCGKSTLLRCLNRMNDLIEGVTITGKLTMDGQDVYGNIDVSDLRIRVGMVFQKPNPFPMSIYENVAYGLRAQGIKDKKHLDEVVERSLRGAALWDEVKDRLKSHAFGLSGGQQQRLCIARTIAMEPDVILMDEPTSALDPIATHKIEELMEDLKKNYTIVIVTHSMQQARRISDRTAFFLMGELVEHDDTQVIFSNPRDDRTRGYVNGDFG | not soluble
6 | MKTTLFYIMFAYALSTAFPSMMLAQASSIAEVNQGQASKMVIDSSARVLSTLEQQRAQFRQDPKALRQFMETEFTTIFDRDYAARLVLGKYARNASDTDVKLFADAITENLMQRYGNALLTFEGKPNFRAKSESRLPGNRNVRVSTELIRSGADPVAVDYLLRNVNGQWKIFDVMIEGISYVQTFRNQFDAPLRQKGIAQVAAELRSGNLQVGKSNGKAAALEHHHHHH | soluble
7 | MKTVRESTTLYNFLGSHNPYWRLTESSDVLRFSTTETTEPDRTLQLSAEQAARIREMTVITSSLMMSLTVDESDLSVHLVGRKINKREWAGNASAWHDTPAVARDLSHGLSFAEQVVSEAHSAIVILDSRGNIQRFNRLCEDYTGLKEHDVIGQSVFKLFMSRREAAASRRNNRVFFRSGNAYEVELWIPTCKGQRLFLFRNKFVHSGSGKNEIFLICSGTDITEERRAQERLRILANTDSITGLPNRNAMQDLIDHAINHADNNKVGVVYLDLDNFKKVNDAYGHLFGDQLLRDVSLAILSCLEHDQVLARPGGDEFLVLASNTSQSALEAMASRILTRLRLPFRIGLIEVYTSCSVGIALSPEHGSDSTAIIRHADTAMYTAKEGGRGQFCVFTPEMNQRVFEYLWLDTNLRKALENDQLVIHYQPKITWRGEVRSLEALVRWQSPERGLIPPLDFISYAEESGLIVPLGRWVILDVVRQVAKWRDKGINLRVAVNISARQLADQTIFTALKQVLQELNFEYCPIDVELTESCLIENDELALSVIQQFSQLGAQVHLDDFGTGYSSLSQLARFPIDAIKLDQVFVRDIHKQPVSQSLVRAIVAVAQALNLQVIAEGVESAKEDAFLTKNGINERQGFLFAKPMPAVAFERWYKRYLKRA | not soluble
8 | MKTVTARPLTAEAFAPYGSVADISELENLVSLADAYEGTGEAKTPVLQLVQAKAMSGSPVISQMEIHPFSSQTFLPLDQSSSLIVVCEAGEDGMPDESTIKAFLASPSQIVTYRHGVMHHRLTPLAPSGRFAMTMWQTGRGGDTVLYPLHTPVSVDISDITP | not soluble
9 | MKTYHLNNDIIVTQEQLDHWNEQLIKLETPQEIIAWSIVTFPHLFQTTAFGLTGLVTIDMLSKLSEKYYMPELLFIDTLHHFPQTLTLKNEIEKKYYQPKNQTIHVYKPDGCESEADFASKYGDFLWEKDDDKYDYLAKVEPAHRAYKELHISAVFTGRRKSQGSARSQLSIIEIDELNGILKINPLINWTFEQVKQYIDANNVPYNELLDLGYRSIGDYHSTQPVKEGEDERAGRWKGKAKTECGIHEASRFAQFLKQDA | soluble
10 | MKVGVIGASEMAGSAIYKLAKQNLEIDVTGIVRHESKAKKVLGDDAKLIVGDIFALSDNILDKFDVIIDAFGTDPKNAEEHVILAKKLINLVRKNKIRVIFILGAGSLHTGDDEHLVVDDIAQMDNADTWINTPRQQLKELEYLNSIDDVDWLGISPALQFEAGPATEYIEGTDELLYNKDGDSKLTSGTMATVVIKETVDSVHHQERITIANALEHHHHHH | soluble
11 | MKVKIAFTTTDRIHVNAHFGWAREIDIYEISDHGYEFLETLKFEGDLKEDGSEDKITPKLEALNGCTIVYVVAIGGSAAARLIKGGVTPVKAKSEEEKIEEVLTKLVKTLKGNPPPWLRKALQPKTLNFADEVENEATV | not soluble
12 | MKVLLANPRGFCAGVDRAIEIVKRTIDMLGTPIYVRHEVVHNRFVVDDLKQRGAIFVEELHQVPDGATVIFSAHGVSQAVRRQAAQRGLKVFDATCPLVTKVHLDVARHCRTGRDMILIGHAGHPEVEGTMGQWDQERGTGRIYLVENIDDVATLHVAQPHHLAYTTQTTLSVDDTRNIIDALRQRFPTIQGPKNNDICYATQNRQDAVRELARECDLVLVVGSPNSSNSNRLSELAQREGVASYLIDSAAEIDPAWVIDKHHIGVTAGASAPQVLVDGVLARLYELGAT | not soluble
13 | MKVMNIIHDSVVDGEGLRTVVFFAGCPHRCVGCHNPKSWNICNGTEMTVEEIVKEIASNPLTDVTFSSGDPFFQAAEVKKVAKIGKDLKKNLWMYTGYTLEEIQSSQNNDMIELLHYGDVLVDGRFEIEEKDLTLPFRGSSNQRIIRLKELEHHHHHH | not soluble
14 | MKVVAFNGSPRRDGNTSILIDKVLNELKKEGITTEHIHIAGGKLRGCTACYKCFETLNNKCIIECDIINNCIEKMIEADGIILGSPTYFTDVTAEMKALIDRAGFVAKANDDILKRKVGAAVVSVRRAGGVHVFDTLNHFFSINQMISVGSDYWNLGMGLDIGDVQKDAEGLHTMELLGQNMAWILKKINELEHHHHHH | not soluble
15 | MKWRYGAAAGVESRGPHIRVQTVASQVPRGVCWMARVAVVVKVYPDDVSIDPKTLAERIKSKLPSGYEVLAEGEEPIAFGLKALKLVIAMNEDTEGGTEEVEQLLKNIEGVQEVEVENVSRMQ | soluble
16 | MKYAVLIGDGMADYPIEELGSRTILQAARTPAMDSIAARGKTGLAKTVPEGFPPGSDVANMSIFGYDPAIYYSGRAPLEAASMGVALAADDVAFRCNLITIENGKIKDYSAGHISSDEAEILIDTLDSELRTEKVRFYPGISYRHLIVAGNDLGAETECLEHHHHHH | soluble
17 | MKYFAYGSNMSLLRLKERVPSSKKLGIVTLKKHQLRFNMSGDDDSGKCDSFETNNHEDIVIGALFEIDENEKDALDRAESLGDGYDEKFVFVQSNSGEVFEALTYYAIKIDASLQPYSWYLNHVIIGAKETKLPTDYLAIIESVECIEDPDTSRDAKQRAMYVLEHHHHHH | not soluble
18 | MKYMIGVDGGGTKTEAIAFDKDGNELVRATSGFGNILIDFEEALVHIMEAINQCQKSLINGHCVCVCLGLAGISGANTNELTLRLKKKYGTKIEIFNDAMIAHAAALKGKDGILTIGGTGAICIGKKGEVYQYSGGWGHILGDEGSGYWIALQALKKMAIQFDQGISLCPLSLNIQRQFQLLTPSHIKSLVYTSSKDKIAAIAPLVIQEARDGNDDAHEIMMQAGKELARITVNVYNKLNFKHSTPIAASGSILRLVPEIFAVFKKCCEESMKEITFVSQAEMAVKGTYYLMRDIYFLEHHHHHH | soluble
19 | MKYQVSLLAVKDIEVSKKFYKELFEQEIELDLGKNVTFKGGFAIQEDFAWLTGINPDTIIQKSNNMELYFEVDDFDEFIEKLNYYKDVEFVHKPLKHEWQQRVVRIYDPDKHIIEIGESMEVIARRYLSEGYSVEETSKIIQHPIEFVKQCENSKELEHHHHHH | soluble
20 | MKYVDGFVVAVPADKKDAYREMAAKAAPLFKEFGALRIVECWASDVPDGKVTDFRMAVKAEENEEVVFSWIEYPSKEVRDAANQKMMSDPRMKEFGESMPFDGKRMIYGGFESIIDE | soluble
21 | MKYVEVIMSIKDEGEFFMKVLQKNEFLQKSNETLASILDMLEKLPVVKFDEIEADKAVLVIIDMTNGFAKEGALKSDAVKELIPRICELSEICDRRKIRKIAFADCHTDESPEFDAYPKHCMKGTAESEIVDEIKNIGGYTLIEKNSTNGFLEEAFRKWLLENPDINTFILTGDCTDICVQQFAITLKAYFNMNNKRARVIVPLNAVDTYDLGVHDRNLMNVMAAYNMIINGVEVVRDIVE | not soluble
22 | MLALGKLLELTLAGREPAEKTQLTVEGVRMRWLAEGALEVRPPQARDNGTDLLLSAGIHGNETAPIELLDELIRSIARGDLKPRARILFLFGNPAAMRLGARYVEQDVNRLFNGRHEQSGGAEALRACELERLAASFFSLPDRYRLHYDLHTAIRGSKIEQFALYPWKEGRQHSRFELARLRAAGISAVLLQNKPSIVFSAYTYEQLGAEAFTLELGKARPFGQNRHVNLAPLRLRLEQIIEGSEPQPDERLEGLQLFSVAREVIKRSDAFTFNLADDVENFSELEKGYVLAEDVSDSRWVVKEEGARIIFPNPKVKNGLRAGIVIVPADADGLGLEHHHHHH | not soluble

— the DeepSol protein solubility set
